Laboratory results from US20140274782A1, “AFFINITY REAGENTS AND METHODS FOR DETECTION, PURIFICATION, AND PROTEOMIC ANALYSIS OF METHYLATED PROTEINS” (The Board of Trustees of the Leland Stanford Junior …, priority 2013, published 2014).

T1: G9a and GLP (Homo sapiens, UniProt Q96KQ7+Q9H9B1)
T1 sequence (Q96KQ7 2-1210 limits assumed): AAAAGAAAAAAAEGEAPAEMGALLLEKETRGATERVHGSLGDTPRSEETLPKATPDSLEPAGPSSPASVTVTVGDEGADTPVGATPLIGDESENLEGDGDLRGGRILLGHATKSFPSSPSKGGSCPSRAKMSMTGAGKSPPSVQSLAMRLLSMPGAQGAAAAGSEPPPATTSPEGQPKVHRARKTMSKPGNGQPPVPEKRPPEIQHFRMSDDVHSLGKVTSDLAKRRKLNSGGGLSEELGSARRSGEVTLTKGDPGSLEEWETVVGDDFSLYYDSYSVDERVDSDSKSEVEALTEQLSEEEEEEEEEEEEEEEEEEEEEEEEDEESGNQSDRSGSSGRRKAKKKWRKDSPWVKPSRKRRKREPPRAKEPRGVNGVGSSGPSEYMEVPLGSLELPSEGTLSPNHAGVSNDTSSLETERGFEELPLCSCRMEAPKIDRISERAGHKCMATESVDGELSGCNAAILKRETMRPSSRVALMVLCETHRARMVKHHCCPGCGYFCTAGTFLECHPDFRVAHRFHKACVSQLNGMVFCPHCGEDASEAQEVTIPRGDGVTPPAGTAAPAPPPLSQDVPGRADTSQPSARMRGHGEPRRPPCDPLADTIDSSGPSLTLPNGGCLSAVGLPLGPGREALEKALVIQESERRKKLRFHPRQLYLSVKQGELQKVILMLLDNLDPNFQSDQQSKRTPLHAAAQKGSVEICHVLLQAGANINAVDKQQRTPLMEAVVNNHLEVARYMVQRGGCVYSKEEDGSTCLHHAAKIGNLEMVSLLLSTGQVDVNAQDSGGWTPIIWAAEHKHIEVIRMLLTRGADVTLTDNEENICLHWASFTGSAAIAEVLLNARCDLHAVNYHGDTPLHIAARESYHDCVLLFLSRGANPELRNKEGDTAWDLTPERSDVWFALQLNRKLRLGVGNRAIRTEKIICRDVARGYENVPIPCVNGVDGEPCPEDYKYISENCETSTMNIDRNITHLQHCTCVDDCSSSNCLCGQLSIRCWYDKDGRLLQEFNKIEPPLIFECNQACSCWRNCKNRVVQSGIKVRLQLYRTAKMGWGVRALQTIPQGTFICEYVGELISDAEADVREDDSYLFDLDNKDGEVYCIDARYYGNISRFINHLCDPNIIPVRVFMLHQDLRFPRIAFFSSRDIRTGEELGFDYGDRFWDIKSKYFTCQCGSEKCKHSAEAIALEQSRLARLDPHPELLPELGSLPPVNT
T1 sequence (Q9H9B1 2-1298 limits assumed): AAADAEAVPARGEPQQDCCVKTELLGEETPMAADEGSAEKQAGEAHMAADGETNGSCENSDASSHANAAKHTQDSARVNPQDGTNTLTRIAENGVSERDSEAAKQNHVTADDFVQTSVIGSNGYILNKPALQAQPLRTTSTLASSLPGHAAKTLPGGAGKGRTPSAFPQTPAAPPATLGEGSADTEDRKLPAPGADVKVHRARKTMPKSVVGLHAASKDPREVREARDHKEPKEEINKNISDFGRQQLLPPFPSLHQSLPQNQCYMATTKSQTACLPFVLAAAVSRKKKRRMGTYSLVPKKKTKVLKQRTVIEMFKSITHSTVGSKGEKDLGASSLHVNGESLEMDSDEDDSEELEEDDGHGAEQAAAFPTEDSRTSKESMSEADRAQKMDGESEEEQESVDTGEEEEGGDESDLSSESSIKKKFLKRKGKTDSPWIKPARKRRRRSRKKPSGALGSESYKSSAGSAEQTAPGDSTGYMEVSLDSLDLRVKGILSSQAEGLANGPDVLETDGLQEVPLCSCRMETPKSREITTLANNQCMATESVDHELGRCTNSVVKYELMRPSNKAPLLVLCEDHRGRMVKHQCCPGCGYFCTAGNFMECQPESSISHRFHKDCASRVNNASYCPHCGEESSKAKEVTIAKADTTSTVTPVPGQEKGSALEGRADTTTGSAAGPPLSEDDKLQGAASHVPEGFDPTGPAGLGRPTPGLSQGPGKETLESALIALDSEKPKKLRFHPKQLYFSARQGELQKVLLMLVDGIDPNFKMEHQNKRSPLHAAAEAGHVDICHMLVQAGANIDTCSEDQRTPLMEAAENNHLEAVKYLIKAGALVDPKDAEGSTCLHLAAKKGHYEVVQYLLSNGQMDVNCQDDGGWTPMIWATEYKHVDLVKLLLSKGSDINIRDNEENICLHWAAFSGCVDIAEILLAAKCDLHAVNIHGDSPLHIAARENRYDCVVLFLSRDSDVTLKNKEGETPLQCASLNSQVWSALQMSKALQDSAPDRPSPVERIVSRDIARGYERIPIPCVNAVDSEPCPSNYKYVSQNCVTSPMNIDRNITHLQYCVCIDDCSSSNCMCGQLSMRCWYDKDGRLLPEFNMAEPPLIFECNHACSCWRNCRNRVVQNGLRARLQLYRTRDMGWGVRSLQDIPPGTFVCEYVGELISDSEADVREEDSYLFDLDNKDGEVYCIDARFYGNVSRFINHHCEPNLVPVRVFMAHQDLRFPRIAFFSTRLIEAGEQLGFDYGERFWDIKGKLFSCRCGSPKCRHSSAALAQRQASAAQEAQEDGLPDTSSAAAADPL

B1: UBTF (protein, UniProt P17480 1-764, looked up)
Nucleolar transcription …: MNGEADCPTDLEMAAPKGQDRWSQEDMLTLLECMKNNLPSNDSSKFKTTESHMDWEKVAFKDFSGDMCKLKWVEISNEVRKFRTLTELILDAQEHVKNPYKGKKLKKHPDFPKKPLTPYFRFFMEKRAKYAKLHPEMSNLDLTKILSKKYKELPEKKKMKYIQDFQREKQEFERNLARFREDHPDLIQNAKKSDIPEKPKTPQQLWYTHEKKVYLKVRPDATTKEVKDSLGKQWSQLSDKKRLKWIHKALEQRKEYEEIMRDYIQKHPELNISEEGITKSTLTKAERQLKDKFDGRPTKPPPNSYSLYCAELMANMKDVPSTERMVLCSQQWKLLSQKEKDAYHKKCDQKKKDYEVELLRFLESLPEEEQQRVLGEEKMLNINKKQATSPASKKPAQEGGKGGSEKPKRPVSAMFIFSEEKRRQLQEERPELSESELTRLLARMWNDLSEKKKAKYKAREAALKAQSERKPGGEREERGKLPESPKRAEEIWQQSVIGDYLARFKNDRVKALKAMEMTWNNMEKKEKLMWIKKAAEDQKRYERELSEMRAPPAATNSSKKMKFQGEPKKPPMNGYQKFSQELLSNGELNHLPLKERMVEIGSRWQRISQSQKEHYKKLAEEQQKQYKVHLDLWVKSLSPQDRAAYKEYISNKRKSMTKLRGPNPKSSRTTLQSKSESEEDDEEDEDDEDEDEEEEDDENGDSSEDGGDSSESSSEDESEDGDENEEDDEDEDDDEDDDEDEDNESEGSSSSSSSSGDSSDSDSN
B2: PRDX1 (protein, UniProt Q06830 2-199, looked up)
Peroxiredoxin-1: SSGNAKIGHPAPNFKATAVMPDGQFKDISLSDYKGKYVVFFFYPLDFTFVCPTEIIAFSDRAEEFKKLNCQVIGASVDSHFCHLAWVNTPKKQGGLGPMNIPLVSDPKRTIAQDYGVLKADEGISFRGLFIIDDKGILRQITVNDLPVGRSVDETLRLVQAFQFTDKHGEVCPAGWKPGSDTIKPDVQKSKEYFSKQK
B3: HNRNPM (protein, UniProt P52272 2-730, looked up)
Heterogeneous nuclear …: AAGVEAAAEVAATEIKMEEESGAPGVPSGNGAPGPKGEGERPAQNEKRKEKNIKRGGNRFEPYANPTKRYRAFITNIPFDVKWQSLKDLVKEKVGEVTYVELLMDAEGKSRGCAVVEFKMEESMKKAAEVLNKHSLSGRPLKVKEDPDGEHARRAMQKVMATTGGMGMGPGGPGMITIPPSILNNPNIPNEIIHALQAGRLGSTVFVANLDYKVGWKKLKEVFSMAGVVVRADILEDKDGKSRGIGTVTFEQSIEAVQAISMFNGQLLFDRPMHVKMDERALPKGDFFPPERPQQLPHGLGGIGMGLGPGGQPIDANHLNKGIGMGNIGPAGMGMEGIGFGINKMGGMEGPFGGGMENMGRFGSGMNMGRINEILSNALKRGEIIAKQGGGGGGGSVPGIERMGPGIDRLGGAGMERMGAGLGHGMDRVGSEIERMGLVMDRMGSVERMGSGIERMGPLGLDHMASSIERMGQTMERIGSGVERMGAGMGFGLERMAAPIDRVGQTIERMGSGVERMGPAIERMGLSMERMVPAGMGAGLERMGPVMDRMATGLERMGANNLERMGLERMGANSLERMGLERMGANSLERMGPAMGPALGAGIERMGLAMGGGGGASFDRAIEMERGNFGGSFAGSFGGAGGHAPGVARKACQIFVRNLPFDFTWKMLKDKFNECGHVLYADIKMENGKSKGCGVVKFESPEVAERACRMMNGMKLSGREIDVRIDRNA
B4: HPRT1 (protein, UniProt P00492 2-218, looked up)
Hypoxanthine-guanine …: ATRSPGVVISDDEPGYDLDLFCIPNHYAEDLERVFIPHGLIMDRTERLARDVMKEMGGHHIVALCVLKGGYKFFADLLDYIKALNRNSDRSIPMTVDFIRLKSYCNDQSTGDIKVIGGDDLSTLTGKNVLIVEDIIDTGKTMQTLLSLVRQYNPKMVKVASLLVKRTPRSVGYKPDFVGFEIPDKFVVGYALDYNEYFRDLNHVCVISETGKAKYKA
B5: DEK (protein, UniProt P35659 2-375, looked up)
Protein DEK: SASAPAAEGEGTPTQPASEKEPEMPGPREESEEEEDEDDEEEEEEEKEKSLIVEGKREKKKVERLTMQVSSLQREPFTIAQGKGQKLCEIERIHFFLSKKKTDELRNLHKLLYNRPGTVSSLKKNVGQFSGFPFEKGSVQYKKKEEMLKKFRNAMLKSICEVLDLERSGVNSELVKRILNFLMHPKPSGKPLPKSKKTCSKGSKKERNSSGMARKAKRTKCPEILSDESSSDEDEKKNKEESSDDEDKESEEEPPKKTAKREKPKQKATSKSKKSVKSANVKKADSSTTKKNQNSSKKESESEDSSDDEPLIKKLKKPPTDEELKETIKKLLASANLEEVTMKQICKKVYENYPTYDLTERKDFIKTTVKELIS

system: 3×MBT domain of L3MBTL1; test: Triple SILAC pull-down, 3xMBT/3xMBTD355N ratio (cytoplasmic, nuclear and chromatin fractions of 293T cells); assay type: binding, human; details: SILAC ratio 3xMBT vs 3xMBTD355N pull-down, 293T cells; experiment with UNC0638 in heavy SILAC media; all values in log base 2;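 further: proteins quantified with MaxQuant, requiring at least two unique peptides and quantification in both label directions, normalized to the mean of proteins from a digested loading control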

Molecule | 3xMBT/D355N UNC Heavy
B1 | 2.47 log base 2
B2 | 1.65 log base 2
B3 | 3.18 log base 2
B4 | 2.51 log base 2
B5 | 2.38 log base 2

same assay, conditions: SILAC ratio 3xMBT vs 3xMBTD355N pull-down, 293T cells; experiment with UNC0638 in light SILAC media; all values in log base 2

Molecule | 3xMBT/D355N UNC Light
B1 | 1.93 log base 2
B2 | 1.98 log base 2
B3 | 2.44 log base 2
B4 | 1.19 log base 2
B5 | 2.01 log base 2

target: T1, G9a and GLP; test: Triple SILAC pull-down after UNC0638 treatment of 293T cells, DMSO/UNC0638 ratio of protein captured by 3×MBT; assay type: cell-based; parameters: endogenous in cells; host or cells: HEK 293T; details: SILAC ratio DMSO relative to UNC0638, pull-down with 3xMBT; UNC0638 in heavy SILAC media; all values in log base 2;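 further: mass spectrometry (Q-Exactive) SILAC quantitation, DMSO/UNC0638 ratio computed after subtracting 3×MBTD355N mutant pull-down background, only proteins with at least twofold 3×MBT over mutant signal considered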

Relative to UNC0638 UNC Heavy | Molecule
0.49 log base 2 | B1
0.17 log base 2 | B2
0.01 log base 2 | B3
0.28 log base 2 | B4
0.10 log base 2 | B5

same assay, conditions: SILAC ratio DMSO relative to UNC0638, pull-down with 3xMBT; UNC0638 in light SILAC media; all values in log base 2

Relative to UNC0638 UNC Light | Molecule
−0.29 log base 2 | B1
0.04 log base 2 | B2
0.19 log base 2 | B3
−0.08 log base 2 | B4
0.10 log base 2 | B5

same assay, conditions: average of UNC Light and UNC Heavy experiments; all values in log base 2

Relative to UNC0638 Average | Molecule
0.10 log base 2 | B1
0.10 log base 2 | B2
0.10 log base 2 | B3
0.10 log base 2 | B4
0.10 log base 2 | B5
